Reference: publication doi:10.1101/2020.12.02.408153

Key:
Assay in all cases: SPR
[1] = target: SARS-CoV-2 spike glycoprotein ectodomain with double Strep II tag (SARS-CoV-2 | bacteriophage T4) (UniProt P0DTC2)
[2] = target: SARS-CoV-2 spike glycoprotein ectodomain with poly-histidine tag (SARS-CoV-2 | bacteriophage T4) (UniProt P0DTC2)
[3] = target: SARS-CoV-2 extended S1 subunit (SARS-CoV-2) (UniProt P0DTC2)

human angiotensin converting enzyme 2, sequence (Q9BYF1 20-611): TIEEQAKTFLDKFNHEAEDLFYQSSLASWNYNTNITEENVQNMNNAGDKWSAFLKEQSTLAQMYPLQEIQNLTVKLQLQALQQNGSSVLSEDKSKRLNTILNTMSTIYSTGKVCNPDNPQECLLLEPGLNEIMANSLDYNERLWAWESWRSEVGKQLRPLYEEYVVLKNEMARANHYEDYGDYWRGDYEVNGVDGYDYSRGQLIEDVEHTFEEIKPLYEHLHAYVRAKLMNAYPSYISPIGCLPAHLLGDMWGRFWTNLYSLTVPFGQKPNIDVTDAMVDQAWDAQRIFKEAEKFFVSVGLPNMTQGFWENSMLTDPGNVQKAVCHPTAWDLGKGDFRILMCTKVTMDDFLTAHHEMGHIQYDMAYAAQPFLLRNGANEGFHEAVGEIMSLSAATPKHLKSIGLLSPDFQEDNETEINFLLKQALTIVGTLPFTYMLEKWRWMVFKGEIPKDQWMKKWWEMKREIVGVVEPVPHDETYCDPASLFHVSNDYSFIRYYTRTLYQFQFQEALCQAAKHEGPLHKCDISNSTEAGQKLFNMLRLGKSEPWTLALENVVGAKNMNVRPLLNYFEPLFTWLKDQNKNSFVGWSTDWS

Row | Substance | IC50 [1] | Kd [1] | Kd [2] | IC50 [3] | Kd [3]
1 | LL-37 (peptide) | 740 nM | 410 nM | 420 nM | 170 nM | 200 nM
2 | human angiotensin converting enzyme 2 (from UniProt Q9BYF1-1 20-611) (receptor) |  | 370 nM | 370 nM |  | 610 nM
